{
  "source": "patent US20220348665A1",
  "key": {"[1]": {"target": "human IGF1R, endogenous, on the surface of breast cancer cell lines (MCF-7, JIMT-1, BT474) (human) (UniProt P08069)", "assay": "FACS on BT474 cells (FL1-H), anti-human FITC; same table: Untreated 1.8, 2nd Ab only 1.93"}, "[2]": {"target": "human IGF1R, endogenous, on the surface of breast cancer cell lines (MCF-7, JIMT-1, BT474) (human) (UniProt P08069)", "assay": "FACS on MCF-7 cells (FL1-H), anti-human FITC; same table: Untreated 2.51, 2nd Ab only 4.53"}, "[3]": {"target": "human IGF1R, endogenous, on the surface of breast cancer cell lines (MCF-7, JIMT-1, BT474) (human) (UniProt P08069)", "assay": "FACS on JIMT-1 cells (FL1-H), anti-human FITC; same table: Untreated 1.36, 2nd Ab only 1.89"}},
  "data": [
    {"substance": "IMC-A12 (antibody)", "values": [
      {"measurement": "MFI", "setting": "[1]", "result": 18.3},
      {"measurement": "MFI", "setting": "[2]", "result": 40.1},
      {"measurement": "MFI", "setting": "[3]", "result": 23}
    ]}
  ]
}
